Laboratory results: PMC11774035

Biological target: T1, His6-Lrp (Klebsiella oxytoca MIT 09-7231) (UniProt A0A181XPK7)
T1 sequence: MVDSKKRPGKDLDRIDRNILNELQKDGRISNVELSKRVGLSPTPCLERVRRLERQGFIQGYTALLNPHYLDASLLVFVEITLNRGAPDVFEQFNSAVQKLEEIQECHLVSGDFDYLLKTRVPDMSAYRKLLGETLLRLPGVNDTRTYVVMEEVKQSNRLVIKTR
Assay: EMSA
Conditions: 40 mM HEPES ([…], room temperature 20 min

| Sequence | binding |
| --- | --- |
| TCTCTCACTCGAAATTTAACAGGTTTTTCGTTTGTTTTTTAACAAAAAAGCGATGAGAAAGTGCTATTCCTTGTCTGTTTACTGGACATGAAAGACGATACGGTTTGCACAAATATTGCACGCCAATGAGTGCATTATGTCAATCAAAA (double strand) [aroX-npsA fragment 1] | no binding |
| TCTCTCCTGGAGAATTAGGAACGTTCACACGCATAAAATCTTCTCTTGAAGAAGAAATTAAAGATCTAAAGAAATGCCGCCAGCTTACCGTGAGATGCTTCTAAGAAAACACCGCAAAACAAGCAACATATAAGCAACACAAACATAACT (double strand) [aroX-npsA fragment 3] | no binding |
